# Assay results taken from patent publication US20220389400.
# Target: amyloid β (UniProt P05067)
# UniProt P05067, sequence (P05067 whole entry, looked up): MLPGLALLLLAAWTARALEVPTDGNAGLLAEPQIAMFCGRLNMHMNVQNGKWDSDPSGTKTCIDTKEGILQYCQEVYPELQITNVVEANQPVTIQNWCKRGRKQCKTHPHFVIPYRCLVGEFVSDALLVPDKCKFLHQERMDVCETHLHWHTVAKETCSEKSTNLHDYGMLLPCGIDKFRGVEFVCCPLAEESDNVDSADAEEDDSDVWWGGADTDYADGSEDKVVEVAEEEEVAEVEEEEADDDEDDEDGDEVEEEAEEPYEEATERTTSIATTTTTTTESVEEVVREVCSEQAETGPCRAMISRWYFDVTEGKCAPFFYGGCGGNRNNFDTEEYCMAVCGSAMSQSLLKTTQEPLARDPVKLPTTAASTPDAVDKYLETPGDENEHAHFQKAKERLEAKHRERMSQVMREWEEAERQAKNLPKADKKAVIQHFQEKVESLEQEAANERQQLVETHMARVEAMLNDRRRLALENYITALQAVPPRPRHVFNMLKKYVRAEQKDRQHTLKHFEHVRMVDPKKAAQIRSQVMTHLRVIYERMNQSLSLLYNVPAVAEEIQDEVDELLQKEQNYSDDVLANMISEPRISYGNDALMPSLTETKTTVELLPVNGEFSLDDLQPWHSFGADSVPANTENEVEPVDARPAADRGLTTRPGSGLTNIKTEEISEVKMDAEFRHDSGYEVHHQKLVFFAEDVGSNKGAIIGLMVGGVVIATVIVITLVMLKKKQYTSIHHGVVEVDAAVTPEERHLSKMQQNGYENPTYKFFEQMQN
substance,measurement,value
NIaΔ20 (20 amino acids removed from the C-terminus),activity to degrade amyloid β (Western blot),showed activity similar to normal NIa
NIaΔ24 (24 amino acids removed from the C-terminus),activity to degrade amyloid β (Western blot),showed activity similar to normal NIa
NIaΔ28 (28 amino acids removed from the C-terminus),activity to degrade amyloid β (Western blot),showed significantly reduced activity
TuMV-derived NIa protease,protease activity; amount of amyloid β by Western blot (4G8),amyloid β disappeared after treatment with NIa and its fragment for 1 hour
